Data: patent US20180346580A1 (INTERVET, published 2018)
Positions count from the first letter of the chain named. Each block holds one binder with its values, some of them ahead of it.

Legend:
[1] = target: T1, canine IL-4 receptor alpha chain (full length) expressed on the surface of CHO DG44 cells (canine); assay: flow cytometry ligand blockade on CHO-cIL-4Rα cells; competitor biotinylated canine IL-4 at 0.32 µg/mL
T1 construct: also called cIL-4Rα; CHO-cIL-4Rα
T1 chain: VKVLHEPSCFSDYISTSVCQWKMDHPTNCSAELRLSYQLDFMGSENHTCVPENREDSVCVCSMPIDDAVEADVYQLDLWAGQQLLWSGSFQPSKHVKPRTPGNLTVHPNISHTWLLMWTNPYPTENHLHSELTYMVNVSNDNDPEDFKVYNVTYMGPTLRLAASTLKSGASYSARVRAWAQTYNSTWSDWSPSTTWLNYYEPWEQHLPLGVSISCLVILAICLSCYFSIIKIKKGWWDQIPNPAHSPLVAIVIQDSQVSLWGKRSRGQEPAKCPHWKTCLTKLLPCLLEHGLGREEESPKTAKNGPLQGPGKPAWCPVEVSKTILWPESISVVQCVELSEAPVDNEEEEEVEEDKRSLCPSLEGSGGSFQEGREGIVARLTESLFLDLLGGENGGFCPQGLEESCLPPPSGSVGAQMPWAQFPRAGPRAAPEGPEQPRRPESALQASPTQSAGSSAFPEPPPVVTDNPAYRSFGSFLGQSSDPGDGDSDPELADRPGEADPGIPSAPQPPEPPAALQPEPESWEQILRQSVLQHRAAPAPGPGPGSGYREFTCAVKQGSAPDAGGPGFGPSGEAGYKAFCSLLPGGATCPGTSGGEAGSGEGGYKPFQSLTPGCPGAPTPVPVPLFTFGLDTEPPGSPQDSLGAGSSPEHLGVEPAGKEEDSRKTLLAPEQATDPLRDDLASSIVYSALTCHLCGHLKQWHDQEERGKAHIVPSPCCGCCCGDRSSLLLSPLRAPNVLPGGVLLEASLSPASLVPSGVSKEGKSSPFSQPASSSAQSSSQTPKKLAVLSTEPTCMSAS
Experimental: Procedure: [0247] 1. CHO-DH44-canIL-4Rα cell grown to 2-4 ×10⁶ cells/mL with more than 96% viability. [0248] 2. The cells were spun down, the supernatant discarded, and the cells were suspended in FACS buffer to 2×10⁷ cells/mL. [0249] 3. The cells were distributed into a U-shape 96-well plate, 50 μl each well. [0250] 4. The anti-canine IL-4Rα mAbs in FACS buffer was diluted three-fold on a 96-well plate from top down to bottom well, starting at 50 μg/mL. [0251] 5. 50 μl of each diluted Ab was transferred into the cell plate and then incubated on ice for 30 min. [0252] 6. The cells were washed twice with FACS buffer. [0253] 7. The cells were resuspended into 100 μl of biotinylated canine IL-4 at 0.32 μg/mL in FACS buffer and incubated on ice for 30 min. [0254] 8. The cells were washed twice with FACS buffer. [0255] 9. The cells were responded into 100 μl of R-phycoerythin conjugated Streptavidin (1:1000 dilution) in FACS buffer and incubated on ice for 30 min. [0256] 10. The cells were washed twice with FACS buffer. [0257] 11. The cells were brought up to 300 μl in FACS buffer. [0258] 12. 10,000 cells were read for each sample by BD Accuri-C6. [0259] 13. The resulting readout were analyzed by FlowJo to get the mean fluorescent intensity (MFI).

[2] = target: T1, canine IL-4 receptor alpha chain (full …); assay: flow cytometry, binding to CHO-cIL-4Rα cells
[3] = target: T2, HIS-tagged extracellular domain of canine IL-4 receptor alpha chain (canine); assay: ELISA on plate-coated HIS-tagged canine IL-4Rα ECD, detection with HRP goat anti-mouse IgG
T2 construct: also called canine IL-4 receptor alpha chain ECD HIS-tagged protein; extracellular domain of canine IL-4Rα
T2 chain: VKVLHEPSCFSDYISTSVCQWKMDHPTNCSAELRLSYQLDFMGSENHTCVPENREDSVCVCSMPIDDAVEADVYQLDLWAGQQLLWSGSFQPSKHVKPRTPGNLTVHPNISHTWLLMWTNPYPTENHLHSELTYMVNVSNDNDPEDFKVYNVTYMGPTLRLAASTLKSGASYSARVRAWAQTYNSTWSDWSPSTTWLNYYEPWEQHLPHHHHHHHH
Experimental: This procedure was repeated as necessary to obtain adequate amounts of mAb from each hybridoma clone. Harvested cell suspensions were centrifuged and the supernatants were filtered through 0.2 micron filter membranes. For antibody purification, each clone's supernatant was purified using a Protein G Sepharose 4 Fast flow 5 mL column (GE Healthcare) by gravity flow. After washing with Tris-EDTA (TE) buffer pH 8.0, bound antibodies were eluted using 0.1 M glycine buffer, pH 2.7, followed by pH neutralization using 1 M Tris, pH 8.0. Antibodies were concentrated and buffer exchanged into phosphate-buffered saline (PBS) using Centriprep YM-10 kDa NMWL centrifugal filter units (Millipore). Antibody concentrations were quantified using spectrophotometry. Purified anti-canine IL-4 receptor α chain mAbs were tested for reactivity with the HIS-tagged ECD domain of canine IL-4 receptor alpha chain by ELISA as follows: HIS-tagged canine IL-4 receptor alpha chain protein is diluted to 10 μg/mL in coating buffer (Carbonate/Bicarbonate pH 9.0) and dispensed at 100 μl/well in 96-well flat bottomed ELISA plates (NUNC). The plates are incubated at 4° C. overnight. The plates are then washed three times with phosphate buffered saline containing 0.05% Tween-20 (PBST). Next, 200 μl of blocking buffer (5% skim milk in PBST) is added to each well and the plates are incubated at 37° C. for 60 minutes. The plates are then washed three times with PBST. Next, 100 μl of test mAbs diluted in blocking buffer is added to the first wells of the appropriate columns. Test mAbs are then diluted three-fold to the appropriate plate position. Following incubation of the plates at 37° C. for 60 minutes, the plates are washed three times with PBST. Next, 100 μl per well of a 1:2,000 dilution of a horseradish peroxidase conjugated goat anti-mouse IgG (KPL) is added to the plates, which are then incubated at 37° C. for 60 minutes. Then the plates are washed three times with PBST, and 100 μl/well of 3,3′,5,5′ tetramethyl benzidine, (TMB) substrate (from KPL) is added to the plates. The color reaction is allowed to develop for 5-20 minutes at 37° C. prior to measuring absorbance at 650 nm.
Various mouse anti-canine IL-4Rα monoclonal antibodies (mAbs) were assayed by ELISA for their ability to bind the extracellular domain of canine IL-4Rα.

B1: mouse anti-canine IL-4Rα monoclonal antibody 6C12 (antibody, V domains shown)
VH: QIQLIQSGPELKKPGETVKISCKASGYTFTTFGMSWVKQAPGKGLKWMGWISTYSGVPTYADDFKGRFAFSLETSASTAYLQINNLKNEDTASYFCARHTFQSRGLAYWGQGTLVTVSA
VL: DIVMTQSHKFMSTSVGDRVSITCKASQDVITTVAWYQQKPGQSPKLLIYSASYRYTGVPDRFTGSGSGTDFTFTITSVQTEDLAVYYCQQHYSTPWTFGGGTKLEIK
notes: Hybridoma-derived mouse antibody; also called mAb 6C12
- IC50 [1]: 19.3 nM
- EC50 [2]: 8.6 nM

B5: mouse anti-canine IL-4Rα monoclonal antibody 4H3 (antibody, V domains shown)
VH: QVQLQQPGAELVKPGASVKLSCKASGYTFTNYWIHWMKQRPGRGLEWIGRIDPNSGGTKYNEKFKSKATLTVDKPSITAYMQLSSLTSEDSAVYYCAAFGSTYGFAYWGQGTLVTVSA
VL: DIVMSQSPSSLAVSAGEKVTMSCKSSQSLLNSRTRKNYLAWYQQKPGQSPKLLIYWASTRESGVPDRFTGSGSGTDFTLTISSVQAEDLAVYYCKQSYNLYTFGGGTKLEIK
notes: Hybridoma-derived mouse antibody; also called mAb 4H3
- IC50 [1]: 3.9 nM
- EC50 [2]: 1.6 nM

B7: mouse anti-canine IL-4Rα monoclonal antibody 11B6 (antibody, V domains shown)
VH: EVQLQESGPGLAKPSQTLSLTCSVTGYSITSDYWNWIRKFPGNKLEYMGYINYSGNTYYNPSLKSRISITRDTSKNQYYLQLNSVTTEDTATYYCARYGGLRQGSWHFDVWGPGTTVTVSS
VL: QIVLTQSPAIMSASPGEKVTISCSASSSVSYMYWYQQKPGSSPKPWIYRTSNLASGVPARFSGSGSGTSYSLTISSMEAEDAATYYCQQYHSYPATFGGGTKLEIK
notes: Hybridoma-derived mouse antibody; also called mAb 11B6
- IC50 [1]: 53.2 nM
- EC50 (read off the curve) [3]: ~0.3 nM
- EC50 [2]: 7.5 nM

B8: 10E10 (antibody, V domains shown)
VH: QVQLQQSGPELVKPGASVKLSCKASGYTFTTYDIHWVKQRPGQGLEWIGWIYPRDGRTTYNEKFKAKATLTVDTSSTTAYMELHSLTSEDSAVYFCARSSPFGYWGQGTTLTVSS
VL: DIQMTQSSSYLSVSLGGRVTITCKASDHINNWLAWYQQKPGNAPRLLISGATSLETGVPSRFSGSGSGKDYTLSITSLQTEDAATYHCHQYWSIPYTFGGGTKVEIK
notes: member of the group m16; also called mAb 10E10; mouse anti-canine IL-4Rα monoclonal antibody 10E10
- binding result [3]: binds

B9: 10F2 (antibody, V domains shown)
VH: QVHLKESGPGLVAPSQSLSITCTVSGFSLTSYGVSWVRQPPGEGLEWLGVIWGDGSTYFHSALISRLSISKDDSKSQVFLKLNSLQTDDTATYYCAKQGTIYDGYYNYAMDYWGQGTSVTVSS
VL: DIVMSQSPSSLTVSVGEKVTMSCKSSQNLLYGGNQKNYLAWYQQKPGQSPKLLIYWASTRESGVPDRFTGSGSGTDFTLTISSVRAEDLAVYYCQQYYDYPYTFGGGTKLEIK
notes: member of the group m16; also called mAb 10F2; mouse anti-canine IL-4Rα monoclonal antibody 10F2
- EC50 (read off the curve) [3]: ~0.3 nM

B11: 1A9 (antibody, V domains shown)
VH: QVPLQQSGPELVKPGASVKISCKASGYAFSSSWMNWVKQRPGKGLEWIGRIYPGDGDTKYNGKFKGKATLTADKSSSTAYMQLSSLTSEDSAVYFCARDDYDEASWGQGTLVTVSA
VL: DIVMTQSQKFMSTSVGDRVSITCKASQNVRSAVAWYQQKPGQSPKSLIYLASNRHTGVPDRFTGSGSGTDFTLTISNVQSEDLADYFCLQHWNYPFTFGSGTKLEIK
notes: member of the group m16; also called mAb 1A9; mouse anti-canine IL-4Rα monoclonal antibody 1A9
- EC50 (read off the curve) [3]: ~0.2 nM

Results, then the binder that gave them:

- EC50 (read off the curve) [3]: ~0.1 nM
B2: 11D3 (antibody, V domains shown)
VH: QIQLVQSGPELKKPGETVKISCKASGYIFTTYGMYWVKQAPGKGLKWMGWINTYSGVPTYVDDFKGRFAFSLETSASTAYLQINNLKNEDTATYFCVVAGWFAYWGQGTLVTVSA
VL: DIKMTQSPSSMYASLGERVTITCKASQDIKSYLSWFQQKPGKSPKTLIYRANILIDGVPSRFSGSGSGQDYSLTISSLEYEDMGIYYCLQYDEFPYTFGGGTKLEIK
notes: member of the group m16; also called mAb 11D3; mouse anti-canine IL-4Rα monoclonal antibody 11D3

- IC50 [1]: 2.1 nM
- EC50 [2]: 1.2 nM
B3: mouse anti-canine IL-4Rα monoclonal antibody 2E2 (antibody, V domains shown)
VH: EVKLVESGGGLVQPGGSLKLSCVASGFTFSDYHMHWVRQTPEKRLEWVAYISKGGGSTYYPDTEKGRFTISRDNAKNTLYLQMSRLKSEDTAMYYCARSPGPSSFYWYFDVWGTGTTVTVSS
VL: DIQMTQSPASLSASVGETVTITCRASENIYSYLAWYQQKQGKSPQLLVYNAKTLAEGVPSRFSGSGSGTQFSLKINSLQPEDFGSYYCQHHYGIPVTVGVGTKLELK
notes: Hybridoma-derived mouse antibody; also called mAb 2E2

- IC50 [1]: 4.2 nM
- EC50 [2]: 1.1 nM
B4: mouse anti-canine IL-4Rα monoclonal antibody 4D8 (antibody, V domains shown)
VH: EVTLVESGGGLVQPGGSLKLSCAASGFTFSDYYMYWVRQTPEKRLEWVAYISPGGGSTYYPDTIKGRFTISRDNAKNTLYLQMSRLKSEDTAMYYCTRHGSPYGSSRGAWFAYWGQGTLVTVSA
VL: B3 VL with A51G, S60A, Y92D, V98F, V100A
notes: Hybridoma-derived mouse antibody; also called mAb 4D8

- binding result [3]: binds
B6: 1B12 (antibody, V domains shown)
VH: EVQLQQSGPELVKPGASVKISCKASGYTFTDYYMNWVKQSHGKSLEWIGDIIPSNGGTSYNQKFKGKATLTVDKSSSAAYMELRSLTSEDSAVYYCARGISYYGNRYYFTMDYWGQGTSVTVSS
VL: DIVMTQAAPSVPVTPGESVSISCRSSKSLLHSNGNTYLFWFVQRPGQSPQLLIYRMSNLASGVPDRFSGSGSGTAFTLRISRVEAEDVGVYYCMQHLEYPFTFGSGTKLDIK
notes: member of the group m16; also called mAb 1B12; mouse anti-canine IL-4Rα monoclonal antibody 1B12

- EC50 (read off the curve) [3]: ~0.1 nM
B10: 1A3 (antibody, V domains shown)
VH: EVQLVESGGDLVKPGGSLKLSCAASGFTFSDFGMHWVRQAPEKGLGWVAYISSGSGTIYYADTVRGRFTISRDNVKNTLFLQMTSLRSEDTAMYYCVRGDLYYGSSFDAYWGRGTLVTVSA
VL: QIVLSQSPAILSASPGEKVTMTCRASSSVSFMFWYQQKPGSSPKPWIYDTSNLASGVPARFSGSGSGTSYSLTISRVEAEDAATYYCQQWSSNPLTFGAGTKLELK
notes: member of the group m16; also called mAb 1A3; mouse anti-canine IL-4Rα monoclonal antibody 1A3
